B1: MdaB_Ec (Escherichia coli K-12) (protein)
chain: SNILIINGAKKFAHSNGQLNDTLTEVADGTLRDLGHDVRIVRADSDYDVKAEVQNFLWADVVIWQMPGWWMGAPWTVKKYIDDVFTEGHGTLYASDGRTRKDPSKKYGSGGLVQGKKYMLSLTWNAPMEAFTEKDQFFHGVGVDGVYLPFHKANQFLGMEPLPTFIANDVIKMPDVPRYTEEYRKHLVEIFG
B2: Frp_Vh1 (Vibrio harveyi) (protein)
chain: MNNTIETILAHRSIRKFTAVPITDEQRQTIIQAGLAASSSSMLQVVSIVRVTDSEKRNELAQFAGNQAYVESAAEFLVFCIDYQRHATINPDVQADFTELTLIGAVDSGIMAQNCLLAAESMGLGGVYIGGLRNSAAQVDELLGLPENSAVLFGMCLGHPDQNPEVKPRLPAHVVVHENQYQELNLDDIQSYDQTMQAYYASRTSNQKLSTWSQEVTGKLAGESRPHILPYLNSKGLAKR
B3: NfsB_Vv (Vibrio vulnificus YJ016) (protein)
chain: MTIVQAAQSRYSTKAFDASRKLPEEKVAAVKELIRMSASSVNSQPWHFIVASSEEGKARIAKATQGGFAFNERKILDASHVVVFCAKTAIDEAYLLDLLESEDKDGRFADVEAKNGMHAGRSFFVNMHRFDLKDAHHWMEKQVYLNVGTLLLGASAMEIDAVPIEGFDAKVLDEEFGLREKGFTSVVIVPLGYHSEDDFNAKLPKSRWSAETVFTEI
B4: NfsA_Kp (Klebsiella pneumoniae) (protein)
chain: MTPTIELLRSHRSIRHFTDAPVSDEQRAEIIASAQAASTSSFLQCTSIIRITDPALRERLVPLTGGQQHVAQAAEFWVFCADFNRHLQICPQAQLGLAEQLLIGVVDTALLAQNALTAAESLGLGGVYIGGLRNSIEAVTELLELPQHVLPLFGLCLGWPADNPDIKPRMPAAMLVHENRYQPLDNALLAEYDEQLAHYYLSRGSNARRDTWSDHIRRTIVKESRPFILDYLHKQGWATR
B5: YdgI_Bs (Bacillus subtilis subsp. subtilis str. 168) (protein)
chain: MIKTNDFMEIMKGRRSIRNYDPAVKISKEEMTEILEEATTAPSSVNAQPWRFLVIDSPEGKEKLAPLASFNQTQVTTSSAVIAVFADMNNADYLEEIYSKAVELGYMPQEVKDRQIAALTAHFEKLPAQVNRETILIDGGLVSMQLMLTARAHGYDTNPIGGYDKENIAETFGLDKERYVPVMLLSIGKAADEGYASYRLPIDTIAEWK
B6: YcnD_Bs (Bacillus subtilis subsp. subtilis str. 168) (protein)
chain: MNEVIKSLTDHRSIRSYTDEPVAQEQLDQIIEAVQSAPSSINGQQVTVITVQDKERKKKISELAGGQPWIDQAPVFLLFCADFNRAKIALEDLHDFKMEITNGLESVLVGAVDAGIALGTATAAAESLGLGTVPIGAVRGNPQELIELLELPKYVFPLSGLVIGHPADRSAKKPRLPQEAVNHQETYLNQDELTSHIQAYDEQMSEYMNKRTNGKETRNWSQSIASYYERLYYPHIREMLEKQGFKVEK
B7: ChrR_Pa (Pseudomonas aeruginosa PAO1) (protein)
chain: MSDDIKVLGISGSLRSGSYNSAALQEAIGLVPPGMSIELADISGIPLYNEDVYALGFPPAVERFREQIRAADALLFATPEYNYSMAGVLKNAIDWASRPPEQPFSGKPAAILGASAGRFGTARAQYHLRQTLVFLDVHPLNKPEVMISSAQNAFDAQGRLLDDKARELIQQQLQALQLWVRRLRG
B8: NfsB_Kp (Klebsiella pneumoniae subsp. pneumoniae MGH 78578) (protein)
chain: MDIVSVALKRYSTKAFDATKKLTAGEAEQLKTLLQYSPSSTNSQPWHFIVASTDEGKARVAKAASGTYVFNERKILDASHVVVFCAKTAMDDAWLQRVVDQEEADGRFATPDAKAANHKGRTFFADMHRKELKDDDQWMAKQVYLNVGNFLLGVAAMGLDAVPIEGVDFAILDEEFDLKAQGYTSLVVVPVGHHSAEDFNATLPKSRLPQSTTITEI
B9: NemA_Ec (Escherichia coli K-12) (protein)
chain: MSSEKLYSPLKVGAITAANRIFMAPLTRLRSIEPGDIPTPLMAEYYRQRASAGLIISEATQISAQAKGYAGAPGIHSPEQIAAWKKITAGVHAENGHMAVQLWHTGRISHASLQPGGQAPVAPSALSAGTRTSLRDENGQAIRVETSMPRALELEEIPGIVNDFRQAIANAREAGFDLVELHSAHGYLLHQFLSPSSNHRTDQYGGSVENRARLVLEVVDAGIEEWGADRIGIRVSPIGTFQNTDNGPNEEADALYLIEQLGKRGIAYLHMSEPDWAGGEPYTDAFREKVRARFHGPIIGAGAYTVEKAETLIGKGLIDAVAFGRDWIANPDLVARLQRKAELNPQRAESFYGGGAEGYTDYPTL
notes: free enzyme (not PhaC fusion)
B10: AzoR_Ec (Escherichia coli K-12) (protein)
chain: SKVLVLKSSILAGYSQSNQLSDYFVEQWREKHSADEITVRDLAANPIPVLDGELVGALRPSDAPLTPRQQEALALSDELIAELKAHDVIVIAAPMYNFNISTQLKNYFDLVARAGVTFRYTENGPEGLVTGKKAIVITSRGGIHKDGPTDLVTPYLSTFLGFIGITDVKFVFAEGIAYGPEMAAKAQSDAKAAIDSIVSA

These proteins were tested on [O]=[Cr](=[O])([OH])[OH] (assay: purified protein). Details: 1 mM NADH, 50 mM Tris-Cl pH 7.0, 22°C.
Work on B1 yielded a Km of 170 ± 120 µM, a kcat of 0.2 s⁻¹ and a kcat/Km of 1100 M⁻¹ s⁻¹. In the case of B2, the Km is reported as 3.8 ± 0.5 µM, the kcat is reported as 0.32 s⁻¹ and the kcat/Km is reported as 84000 M⁻¹ s⁻¹. B3 showed a Km of 2200 µM, a kcat of 0.8 s⁻¹ and a kcat/Km of 360 M⁻¹ s⁻¹. For B4, the Km was 1.7 ± 1.0 µM, the kcat was 0.12 s⁻¹ and the kcat/Km was 69000 M⁻¹ s⁻¹. B5 gave a Km of 63 ± 1 µM, a kcat of 0.48 s⁻¹ and a kcat/Km of 7700 M⁻¹ s⁻¹. For B6, the Km was 73 ± 2 µM, the kcat was 0.37 s⁻¹ and the kcat/Km was 5000 M⁻¹ s⁻¹. In the case of B7, the Km is reported as 1300 ± 100 µM, the kcat is reported as 1.5 s⁻¹ and the kcat/Km is reported as 1100 M⁻¹ s⁻¹. B8 showed a Km of 47 ± 4 µM, a kcat of 0.37 s⁻¹ and a kcat/Km of 7800 M⁻¹ s⁻¹.

Same assay, conditions: 1 mM NADH, 50 mM Tris-Cl pH 7.0, 22°C, free enzyme
B9 gave a Km of 16 ± 9 µM, a kcat of 1 s⁻¹ and a kcat/Km of 110000 M⁻¹ s⁻¹.

Each protein was assayed on NC(=O)C1=CN([C@@H]2O[C@H](COP(=O)(O)OP(=O)(O)OC[C@H]3O[C@@H](n4cnc5c(N)ncnc54)[C@H](O)[C@@H]3O)[C@@H](O)[C@H]2O)C=CC1 (assay: diphenylcarbazide Cr(VI) assay, Lineweaver-Burk). Details: 150 µM Cr(VI), 22°C, pH 7.0, free enzyme, varied: cofactor.
Type: biochemical, Escherichia coli
B9 showed a Km of 450 ± 30 µM.

What follows are proteins tested on [O]=[Cr](=[O])([OH])[OH] (assay: cells, lysate or membranes named). Details: 1 mM NADH, 50 mM Tris-Cl pH 7.0, 22°C, no lysate or lawsone added.
Protein B10 has a Km of 380 µM, a kcat of 0.03 s⁻¹ and a kcat/Km of 87 M⁻¹ s⁻¹.
